Assays:
[1] = target: SARS-CoV-2 spike S2P (ectodomain of the SARS-CoV-2 S trimer) (SARS-CoV-2, ancestral (P0DTC2 sequence))
[2] = target: SARS-CoV-2 spike S2P (ectodomain of the SARS-CoV-2 S trimer) (SARS-CoV-2, ancestral (P0DTC2 sequence)); assay: SPR

## 2-15 IgG with the paratope somatic hypermutation Y32F (light chain) reverted to germline (antibody)
[1]
  pseudovirus neutralization potency, fold reduction against 2-15 IgG: 42 fold
[2]
  fold reduction of binding affinity against 2-15 IgG: 12 fold

Reference: paper PMC7972811
